Legend:
[1] = biological target: T1, Tie1 (Homo sapiens, UniProt P35590); test: Tie1 phosphorylation assay in transfected COS1 cells; assay type: cell-based; settings: COS1 cells with V5-tagged full length Tie1, serum starved, E3 IgG 200 ng/ml
Experimental: COS1 cells were transfected with pcDNA3-Tie1-V5. After 24 h of transfection, the cells were serum starved for 8 h and then treated with E3 IgG. For the Tie1 phosphorylation assay, HDMVECs were cultured on 10 cm dishes to near confluence, starved (8-16 h) in serum free medium and stimulated as indicated. After the stimulations, the cells were lysed in lysis buffer (RIPA-DOC: 50 mM Tris-HCl pH 8.0, 150 mM NaCl, 1% Triton-X-100, 0.1% SDS, 0.5% DOC, 10 mM EDTA, supplemented with aprotinin, leupeptin, PMSF and sodium vanadate). Clarified lysates from transfected COS1 cells or HDMVECs were immunoprecipitated with anti-V5 or anti-Tie1 B9, respectively. Proteins were separated by SDS-PAGE, transferred to nitrocellulose and immunoblotted using the anti-phosphotyrosine and anti-Tie1 (R&D systems) antibodies.
To test if the E3 IgG binding to the extracellular region of Tie1 induces autophosphorylation of Tie1, the Tie1 receptor phosphorylation level in response to E3 IgG treatment was studied in transiently transfected COS1 cells and human primary endothelial cells. COS1 cells were transfected with an expression vector containing a V5-tagged full length Tie1 cDNA, and, after serum starvation, the cells were treated with E3 IgG (200 ng/ml). […]

[2] = biological target: T1, Tie1; test: Confocal microscopy staining of HUVEC; assay type: binding; design: endogenous in cells; host or cells: HUVEC; settings: biotinylated antibody 10 μg/ml, fixed cells
Experimental: We analyzed the staining pattern of E3 in HUVECS using confocal microscopy. HUVEC were trypsinised, washed with PBS and spotted at a density of 60 000 cells on a gelatine coated microscope slide and incubated for 24 hours in a humidified incubator at 37° C. Cells were air dried and fixed with 4% paraformaldehyde for 20 minutes at room temperature. The slides were washed with PBS. The slides were incubated with 10% Heat inactivated human serum (incubation buffer).
For measuring specific binding to Tie-1, biotinylated antibody E3 and biotinylated negative control antibody A2 were used at a concentration of 10 μg/ml and incubated for 1 hour at room temperature. Slides were washed twice with PBS. Then, Strepatvidin-R-phycoerythrin (Dako, Glostrup, Denmark) was added and incubated for 1 hour at room temperature. After the last incubation and washing detection of bound antibodies was performed by means of confocal microscopy.

[3] = test system: Tie-1; test: Immunohistochemistry of mouse SW480 xenograft tumor sections; settings: biotinylated E3 IgG1 10 μg/ml, paraffin sections
Experimental: We determined if antibody E3 binds to mouse endothelial cells in mouse xenographs. Immunohistochemistry was performed with biotinylated E3 IgG1 (a,z allotype) antibody and control antibodies anti-CD31 (endothelial cell specific marker) and anti-PCNA (proliferating cell nuclear antigen). Formalin-fixed tumor tissues from a mouse-xenograph containing SW480 cells (ATCC) were tested for the binding pattern of the human anti-Tie1 antibody E3. 5 μm sections of paraffin embedded tissues were deparaffinized, rehydrated and pretreated with warm the citrate buffer (0.01 M sodium citrate, pH6 at 95° C.) for 45 min. The slides were cooled down in fresh citrate buffer for 20 min and rinsed with distilled water. The slides were hydrogen peroxide treated, (0.3% H2O2 in PBS), and preincubated with PBS, 5% FCS, 5% heat inactivated human serum (HS) for 1 hour. Between antibody incubations slides were washed 3 times 5 minutes in PBS. Biotinylated antibodies E3 and A2-SV were diluted to a concentration of 10 μg/ml in PBS, 10% HS and incubated for 1 hour at RT. Slides were then incubated with an avidin-HRP (Dako) for 30 minutes at room temperature. Staining was detected by AEC (Vector Laboratories, Burlingame) and H2O2. The peroxidase reaction was stopped with water and slides were counter-stained with haematoxylin. The tissues were evaluated for their binding reactivity.

T1 sequence (P35590 22-1138): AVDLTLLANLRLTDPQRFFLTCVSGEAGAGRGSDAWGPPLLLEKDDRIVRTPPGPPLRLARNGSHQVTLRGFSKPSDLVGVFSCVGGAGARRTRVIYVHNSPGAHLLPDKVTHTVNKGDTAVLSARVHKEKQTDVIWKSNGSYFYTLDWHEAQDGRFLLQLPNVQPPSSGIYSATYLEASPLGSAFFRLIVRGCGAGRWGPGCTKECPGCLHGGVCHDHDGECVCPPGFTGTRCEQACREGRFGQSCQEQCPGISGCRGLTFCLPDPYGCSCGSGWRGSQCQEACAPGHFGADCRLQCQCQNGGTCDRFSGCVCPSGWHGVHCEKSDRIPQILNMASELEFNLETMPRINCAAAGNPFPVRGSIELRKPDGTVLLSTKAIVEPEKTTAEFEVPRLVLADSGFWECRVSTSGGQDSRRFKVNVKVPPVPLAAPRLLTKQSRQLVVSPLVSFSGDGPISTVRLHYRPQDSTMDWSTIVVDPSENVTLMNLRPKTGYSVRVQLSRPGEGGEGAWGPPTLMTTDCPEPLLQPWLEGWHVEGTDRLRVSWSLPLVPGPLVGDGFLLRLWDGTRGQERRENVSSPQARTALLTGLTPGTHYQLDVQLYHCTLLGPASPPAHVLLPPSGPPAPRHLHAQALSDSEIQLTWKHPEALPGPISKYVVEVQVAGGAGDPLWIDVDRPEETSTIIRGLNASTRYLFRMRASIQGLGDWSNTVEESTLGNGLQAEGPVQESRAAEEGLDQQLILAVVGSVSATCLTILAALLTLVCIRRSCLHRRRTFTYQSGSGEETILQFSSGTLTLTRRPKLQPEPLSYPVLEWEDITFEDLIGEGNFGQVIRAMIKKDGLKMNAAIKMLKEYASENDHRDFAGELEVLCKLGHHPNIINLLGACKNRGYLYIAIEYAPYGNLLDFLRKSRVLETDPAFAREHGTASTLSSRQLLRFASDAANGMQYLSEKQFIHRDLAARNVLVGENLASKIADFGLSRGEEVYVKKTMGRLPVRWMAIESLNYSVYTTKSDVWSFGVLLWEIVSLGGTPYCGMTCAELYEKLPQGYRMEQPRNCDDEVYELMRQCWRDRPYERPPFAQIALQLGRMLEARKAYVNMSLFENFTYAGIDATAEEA

B1: E3: human anti-Tie1 antibody from Fab phage library; HC SEQ ID NO:114, LC SEQ ID NO:116 (antibody, V domains shown)
VH: EVQLLESGGGLVQPGGSLRLSCAASGFTFSMYGMVWVRQAPGKGLEWVSVISPSGGNTGYADSVKGRFTISRDNSKNTLYLQVNSLRAEDTAVYYCARAPRGYSYGYYYWGQGTLVTVSSASTKGPSVFPLAPSSKSTSGG
VL: DIQMTQSPLSLSASVGDRVTITCRASQGIGHYLAWYQQKPGKVPKLLIYTASTLQSGVPSRFSGSGSGTDFTLTINSLQPEDVATYYCQQFNSYPHTFGQGTRLDIK
modifications: Synthetically generated peptide
[1]
  time of stimulation after which Tie1 is tyrosine phosphorylated: 10 to 30 min
[2]
  binding to HUVEC by confocal microscopy: binds specifically to HUVEC
  localisation of staining in HUVEC: pre-dominantly located inside of the cell
[3]
  staining pattern in mouse xenograft tumor tissue: consistent with staining of mouse endothelial cell Tie-1

Reference: patent US7871610B2, “Antibodies to Tie1 ectodomain” (Dyax Corp., priority 2003, dated 2011)
